test: yeast display, Sf9 membrane polyspecificity reagent, FACS + sequencing; frameworks hold sequencing errors
In short: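 Genes from sorted yeast were amplified by colony PCR, read by MiSeq 2 × 250 sequencing and filtered on CDR length. These cells carried a synthetic nanobody library in Saccharomyces cerevisiae BJ5465 and were sorted by FACS into low and high (top ~1%) gates on anti-HA and streptavidin fluorescence. Polyreactivity is labelled according to the gate of origin.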

Sequence	polyreactivity (PSR sort gate)
QVQLVESGGGLVQAGGSLRLSCAASGSIFRYYAMGWYRQAPGKERELVAVITSSGTSTYYADSVKGRFTISRDNAKNTVYLQMNSLKPEDTAVYYCARRSSGELRYHIYDYWGQGTQVTLSS	low polyreactivity
QVQLVESGGGLVQAGGSLRLSCAASGSILDPNAMGWYRQAPGKERELVASISRGDNTYYADSVKGRFRISRDNAKNTVYLQMNSLKPEDTAVYYCAADYSWVVWHDYWGQGTQVTVSS	low polyreactivity
QVQLVESGGGLVQAGGSLRLSCAASGSIFYVYTMGWYRQAPGKERELVAAISSSAGSTYYADSVKGRFTISRDNAKNTVYLQMNSLKQEDTAVYYCAAKVRYSLRKYYYWGQGTQVTVSS	high polyreactivity
QVQLVESGGGLVQAGGRLRLSCAASGRTFDVYAMVWYRQAPGKERELVAAISKRGGSTYYADSVKGRFTISRDNAKNTVYLQMNSLKPEDTAVYYCNAYQTGWKGYDYWGQGTQVTVSS	high polyreactivity
QVQLVESGGGLVQAGGSLRLSCAASGRIFTYNAMGWYRQAPGKERELVAVITSGGSTYYADSVKGRFTISRDNAKNTVYLQMNSLKPEDTAVYYCAARVWGSSQYYYWGQGTQVTVSS	low polyreactivity
QVQLVESGGGLVQAGGSLRLSCAASGNIFPYYTLGWYRKAPGKEREWVAAITIGGSTYYADSEKGRFTISRDNAKNTVYLQMNSLKPEDTAVYYCAARSRYYDTRFEYWGQGTQVTVSS	low polyreactivity
QVQLVESGGGLVQAGGSLRLSCAASGIIFVYYDMGWYRQAPGKERELVASISRGGSTNYADSVKGRFTISRDNAKNTVYLQMNSLKPEDTAVYYCAAGSYSILVHLVRYYYWGQGTQVTVSS	high polyreactivity
QVQLVESGGGLVQAGGSLRLSCADSGYIYPYYAMRWYRQAPGKERELVATITSRGGSTYYADSVKRRFTISRDIAKNTVYLQMNSLKPEDTAVYYCAIEYRYYRRRYDYCGQGTQVTVSS	high polyreactivity
QVQLVESGGGLVQAGGSLRLICAASGITFSVYTMGWYRQAPGKERELVAAIDSDGITNYADSVKGRFTISRDNAKNTVYLQLNSLKPEDTAVYYCAKQSGRADGVSGFDYWGQGTQVTVSS	low polyreactivity
QVQLVESGGGLVQAGGSLRLSCAASGRIFVYYDMGWYRQAPGKEREVVAAISSTGGSTNYADSVKGRFTISRDNAKNTVYLQMNSLKPEDTAVYYCNAALWRIAYPYGYYQYDYWGQGTQVTVSS	low polyreactivity
QVQLVESGGGLVQAGGSLRLSCAASGSTYPSYAMGWYRQAPGKERELVAAINSGGSTNYADSVKGRFTISRDNAKNTVYLQMNSLKPEDTAVYYCAASVYGQHAGPGRWYTFYYWGQGTQVTVSS	low polyreactivity
QVQLVESGGGLVQAGGSLRLSCAASGITFGCNAMGWYRQAPGKEREFVAAITFSDGSTRYADSVKGRFTISRDNAKNTVYLQMNSLKPEDTAVYYCAADTWSDKYDYWGQGTQVTVSS	low polyreactivity
QFQLVESGGGLVQAGGSLRLSCAASGRIFKTYTMGWYRQAPGKERELVAVITSGGGTYYADSVKGRFTISRDNAKNTVYLQMNSLKPEDTAVYYCAARGMESPYGYWGQGTQVTVSS	low polyreactivity
QVQLVDSGGGKVQAGGSLRLSCAASGITFSRNAMGWYRQAPGKEMELVAAITWNGGRTYYADSVKGRFTISRDNAKNTVDLQMNSLKPEDTAVYYCAADSGTRNLASYRYYYWGQGTQGTVSS	high polyreactivity
QVQLVESGGGLVQAGGSLRLSCAASGSTFYSYAMGWYRQAPGKERELVADITDSGGSTYYADSVKGRFTISRDNAKNTVYLQMNSLKPEDTALFYCNAAYYIWYNKVSSTYGIHGMDYWGQGTQVTVSS	high polyreactivity
QVQHVESGGGLVQAGGSLRLSCAASGSILGVNAMGWYRQAPGKERELVAAISRTGGTTYYADSVKGRFTISRDNAKNTVYLQMHSLKPEDTAVYYCAGDVVFTSVPTGYLGYEYWGQGTQVTVSS	high polyreactivity
QVQLVESGGGLVQAGGSLRLSCAASGITFNRYAMGGYRQAPGKERELVASITSGGRTNYADSVKGRFTISRDNAKNTVYLQMNSLKPEDTAVYYCAVRWVRSRSSSLRKANYYWGQGTIVTVSS	high polyreactivity
QVQLVESGGGLVQAGGSLRLSCAASGSIFFYAMGWYRQAPGKERELVADITYTGGSKYADSEKGRFTISRDNAKNTVYLQMNSLKPEETAVYSGATLDGGLFDDWGQGTQVTVSS	low polyreactivity
QVQLVESGGGLVQAGGSLRLSCAASGSTFAYNAMGWYRQAPGKERELVAAISSSGTSTYYADSVKGRFTISRDYAKNTVYLQMNSLKTEDTAVYYCAARSAILKSGYLMDYWGQGTQVTVSS	low polyreactivity
QVQLVESGGGLVQAGGSLRLSCAASGFTFYSNAMGWYRQAPGKERELVAAITGRGGRTYYADSVKGRFTISRDNAKNTVYLQMNSLKPEDTAVYYCAAVYHVSTWGGRYYFRQGYDYWGQGTQVTVSS	high polyreactivity
QVQLVESGGGLVQAGGSLRLSCAASGRTFYWNAMGWYRQAPGKERELVAAIRWRGGNTYYADSVKGRFTISRDNAKNTVYLQMNSLKPEDTAVYYCAAAGGKSEMGYWGQGTQVTVSS	high polyreactivity
QVQLVESGGGLVQAGGSLRLSCAASGFTVGYAMGWYRQAPGTERELVAAITRGGGTRTSYADSVKGRFTISRDNAKNTVYLQMNSLKPEDTAVYYCAARRWWSPRTQYDYWGQGTQVTVSS	high polyreactivity

Sequence	polyreactivity (PSR sort gate)
QVQLKESGVGLVQAGGSLRLSCAASGTIYWLWSMGWYCQAPGKERELVASISSGGTTYHADSVKGRFTISRDNAKNTVYLQMNSLNPEDTAVYYSAAFYVATAKLGYWGQGSQVTVSS	low polyreactivity
QVQLVESGGGLVQAGGSLRLSCAASGSIFGYYAMGWYRQAPGKERELVASITRSGGSTYYADSVKGRFTISRDNAKNTVYLQMNSLQPEDTAVYYCAVARYRHGRSGTYDVTGEYWGQGTQVTVSS	high polyreactivity
QVQLVESGGGLVQAGGSLRISCAASGSNFNPYDMGGYRQAPGKESELVAAIRTAGSTYYADSVKGRFTISRDNAKNTVYLQMISLNPEDTAVYYCNADEGFLYSAYEYDYWGQGTQVTVSS	low polyreactivity
QVQLVETGGGLVQAGGSLRLSCAASGRTFKGYAMGWYRQSPGKERELVAGISRGAGRTYYADSVKGRFTISRDNAKNTVYLQMNSLKPEDTEVYYCAAVPSYHSTSPFYYWGQGTQVTVSS	high polyreactivity
QVQLVESGGGLVQAGGSLRLSCAASARTFSYYAMGLYRQEPGKERELVAAIRRSSGTTYYADSVKGRFTISSDNAKYSVYLQMNSLKPEDTADYYCNARSRRASIKRDYWGQGTQVSVSS	high polyreactivity
QVQLVESGGGLVQAGGSLRLSCAASGFNFNNNGMGWYRQAPGKERELDAAISYSGGRTYYADSVKGRFTISRDNAKNTLYLQMNSLKPEETAVYYFADNSYYSRYDYWGQGTQVTVSS	low polyreactivity
QVQLVESGGGLVQAGGSLRLSCAASGLIIPVYVMGWYRQAPGKERELVADITTVGSTYADSVKGRFTISRDNAKNTVYLQMNSLQPEDTAVYYCAADPPAPQYWWDHGNYWGQGTQVTVSS	low polyreactivity
QVQLVESGGGLVQAGGSLRLSCAASGSIFGANAMGWYRQAPGKERELVAAISTRGGRTYYADSVKARFTISRDNAKNTVSLQMNSLKPEDTALYYCAARRFSKVRSMYYWRQGTQVTVSS	high polyreactivity
QVQLVESGGALVQAGGSLRLSCAASGFIFFQYAMGWYRQAPGKERELVAAISGSGVTTYYADSVKGRFTISRDNAKNTVYLQMNSLKPEDTAVYYCNAALRWKYDWGQGTQVTVSS	low polyreactivity
QVQLVESGGGLVQAGGSLRLSCAASGSIFSRYAMGWYRQAPGKERELVAAISRRGGTTYYADSVKGRFTISRDNAKNTVYLQMNSQKPVDTAVYYCAAVFVTQSFIYDYYYWGQGTQVTVSS	high polyreactivity
QVQLVESGGGLVQAGGSLRLSCAASGSIFARYAMGWYRQAPGKERELVAAISGSGASTYYADSVKGRFTISRDNAKNTVFLQMNSLKPEDTAVYYCARPFLRRPTYRFESGYGYWGQGTQVTVSS	high polyreactivity
QVQLVESGGGLVQAGGSLRLSCAASGSTFDIYVMGWYRQAPGKERELVAAISRVGNTSYADSVKGRFTISRDNAKNTVYLQMNSLNPEDTAVYYCAADAPSWYDRQYDYWGQGNQVTVSS	low polyreactivity
QVQLVESGGGLVQAGGSLRLSCAASGSSFGWYGMGWYRQAPGKERELVASINWRGSSTYYADSVKGRFTISRDNSKNTVYLQMNSLKPEDTAVYYCATTRDWAYNYWGQGTQVTVSS	low polyreactivity
QVQLEESGGGLVQSGGSLRLSCAASGRTFSGYAMGSYRQAPGKERELVSAISFSGGSTYYADSVKGRFTISRDNAMNTVYLQMNSLIPEDTAVYYCNAYSWYNGIGNYDYWGQGTQVTVSS	low polyreactivity
QVQLVESGGGLVQAGGSLRLSCAASGTTFDVYAMGWSRQAPGKERELVAAITSGGTTNYADSVKGRFTISRDNAKNPVFFQMNSLKPEDTAVYYCAKDSRNVYWDYGYWGQGTQVSVSS	low polyreactivity
QVQLVESGGGLVQAGGSLRLSCAASGRTFGFYDMGWYRQAPGKERELVAAIRGSIGYTYYADSVKGRITISRDNAKNTVYLQMTSLKPEDTAVYYCAKAIRYPAAKFYWGQGSQVTVSS	high polyreactivity
QVQLVESGGGLVQAGGSLRLSCAASGFTFDHYAMGWCRQAPGKERELVAAITSSGGRTYYADSVKGRFTISRDNAKNTVYLQMNSLKPEDTAVYYCNARPVYYSGYGYWGQGTQVTVSS	high polyreactivity
QVQLVESGGGLVQAGGSLRLSCAASGRIFYVNAMGWYRQAPGKERELVAAISGSGGRTYYADSVKGRFTISRDNAKNTVYLQMNSLKPEDTAVYYWNTQFRYPQKYDYWGQGTQVTVSS	high polyreactivity
QVQLVESGGGLVQAGGSLRLSCAASGFIFTSNAMGWYRQAPGKERELVAAITKSGGSTYYADSVKGRFTISRDNAKNTVYLQMNSLKPEDTAVYYCATRGVRRYYKTMNYWGQGTQVTVSS	high polyreactivity
QDQLVESGGGLVQAGGSLRLSCAASGRIFHGNAMGWYRQARGKEWELVAAISRRGGSTYSADSVKGRFTISRDNAKNTVYLQMNSLKPEDTAVYYCAAVWPYGSRGAPMDYWGQGTQVTVSS	high polyreactivity
QVQLVESGGGLVQAGGSLRLSCAASGRTFRKYAMGWYRQAPGKERELVAAINKSGGTTYYADSVKGRFTISRDNAKNTVYLQMNSLNPEDTAVYYCAADFYYYSYHSGQAPYDYWGQGTQVTVSS	high polyreactivity

From the nanobody polyreactivity screen of Harvey et al. (2022)
